In data set [1] the target is T1, CD63 large extracellular domain, recombinant (Homo sapiens, UniProt P08962 103-203). Nature of the data set: ELISA; PBS pH 7.4, 2.0 mM MgCl2, 0.02% Tween 20, 100 ug/mL salmon sperm DNA; ELISA 0.5 h; cells at RT 1 h (Methods) or 37 C 30 min (Results). Conditions: protein: commercial, tags: C-terminal His.
The target of another data set is HER2 (Homo sapiens (Human), UniProt P04626 23-652). Described as above. To be noted: protein: commercial.
The target of data set [2] is T1, CD63 large extracellular domain, …. Nature of the data set: ELISA; 200 nM aptamer; PBS pH 7.4, 2.0 mM MgCl2, 0.02% Tween 20, 100 ug/mL salmon sperm DNA; ELISA 0.5 h; cells at RT 1 h (Methods) or 37 C 30 min (Results). To be noted: protein: commercial; tags: C-terminal His; label: biotin.

T1 sequence (P08962 103-203): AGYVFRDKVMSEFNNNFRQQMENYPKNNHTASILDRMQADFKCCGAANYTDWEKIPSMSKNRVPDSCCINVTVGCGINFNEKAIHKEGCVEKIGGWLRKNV

B1: CD63-2 (ssDNA)
DNA: TAACCACCCCACCTCGCTCCCGTGACACTAATGCTAATTCCAA
By Kd is commonly meant the free concentration of one partner at which half of the binding sites on the other are occupied at equilibrium, for simple one-to-one binding. B1: in data set [1] (label: biotin (ELISA)), the dissociation constant (Kd) is 78.4 nM. In the data set with HER2 (label: biotin (ELISA)), the binding result is “no binding”.

B2: CD63-6 (ssDNA)
DNA: TACCTACGACATGCCTGTGCTAGCCGAACCATGCTGAGGTCGT
For the molecule B2, the binding result in data set [2] is “no binding”.

B3: CD63-1 (ssDNA)
DNA: TAACACGACAGACGTTCGGAGGTCGAACCCTGACAGCGTGGGC
As to B3, the Kd in data set [1] (label: 5' or 3' biotin (ELISA)) stood at 38.7 nM. The binding result with HER2 (label: 5' or 3' biotin (ELISA)) is reported as “no binding”.

For the origin of these results see article PMC7730289, “Development of a CD63 Aptamer for Efficient Cancer Immunochemistry and Immunoaffinity-Based Exosome Isolation”.
